Experimental data: EP4792821A2 (Beijing Youcare Kechuang Pharmaceutical Technology Co., Ltd., dated 2026)
*1 amine or outer side, *2 acyl side, *3 side chain or, on linkers, in order; H or OH if unused. Side-chain parts run from the residue outwards. The star is where a group is joined. Succinyl(4-O-cholesteryl) = CC(C)CCC[C@@H](C)[C@H]1CC[C@H]2[C@@H]3CC=C4C[C@@H](OC(=O)CCC(=O)*)CC[C@]4(C)[C@H]3CC[C@]12C; Suc = O=C(CCC(=O)[*:2])[*:1]

Target: F protein of RSV A long virus strain (Respiratory Syncytial Virus (RSV) A …, UniProt P12568 26-574)
Sequence (P12568 26-574): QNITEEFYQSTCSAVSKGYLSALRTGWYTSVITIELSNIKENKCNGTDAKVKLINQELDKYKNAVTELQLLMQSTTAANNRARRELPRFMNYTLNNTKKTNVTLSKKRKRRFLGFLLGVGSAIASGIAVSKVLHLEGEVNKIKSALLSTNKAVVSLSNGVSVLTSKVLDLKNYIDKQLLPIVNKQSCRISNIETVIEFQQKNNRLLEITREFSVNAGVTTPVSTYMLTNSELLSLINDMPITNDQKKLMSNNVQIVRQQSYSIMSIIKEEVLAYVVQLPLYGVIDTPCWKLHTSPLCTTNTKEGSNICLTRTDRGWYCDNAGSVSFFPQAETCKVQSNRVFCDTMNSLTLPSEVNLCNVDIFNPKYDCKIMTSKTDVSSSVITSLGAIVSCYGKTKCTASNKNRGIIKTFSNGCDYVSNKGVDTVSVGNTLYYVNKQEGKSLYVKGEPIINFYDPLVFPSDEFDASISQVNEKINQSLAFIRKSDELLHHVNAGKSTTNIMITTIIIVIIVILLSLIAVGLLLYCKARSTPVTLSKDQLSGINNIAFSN
Assay: cell-based or functional assay

Binder	IC50/nM, plaque reduction, RSV A long on HEp-2 cells (Table 2, Cell fusion inhibition activity)
Ac-FDASIEEVNRRIEESLRRIEESDRRLEEVNAEAAAKK([Suc-Succinyl(4-O-cholesteryl)])-NH2 [Compound 42]	11.8 nM
Ac-YDELVFDASQVNEKINQSLEKIRKSDELLHNVEAAAKK([Suc-Succinyl(4-O-cholesteryl)])-NH2 [Compound 30]	14.9 nM
Ac-SDELVNKKIEFDKKINQSLKKIEESDKKKLEAAAKK-NH2 [Compound 51]	9.9 nM
Ac-WDEFDKKIEEVNKKIEESLKKIEESDKKLEEVNAEAAAKK([Suc-Succinyl(4-O-cholesteryl)])-NH2 [Compound 40]	11.7 nM
Ac-WDEFDASISQVNEKINQSLEEIRKSDELLHNVNALEAAAKK([Suc-Succinyl(4-O-cholesteryl)])-NH2 [Compound 38]	14.6 nM
Ac-LVKKIDEFDASISQVNEKINQSLEEIRKSDELLHNVGSGSGK([Suc-Succinyl(4-O-cholesteryl)])-NH2 [Compound 29]	19.3 nM
Ac-FDEEISQVNEKINQSLAFIRKSDELLHNVNAGKSTTEAAAKK([Suc-Succinyl(4-O-cholesteryl)])-NH2 [Compound 26]	12.8 nM
Ac-DEFDKKKIEEVNKKIEESLKKIEESDKKLEEVEAAAKK([Suc-Succinyl(4-O-cholesteryl)])-NH2 [Compound 22]	11.3 nM
Ac-WDEFDASISQVNEKINQSLEEIRKSDELLHNVNAGLGSGSGK([Suc-Succinyl(4-O-cholesteryl)])-NH2 [Compound 27]	25.7 nM
Ac-DEFDKKIEEVNKKIEESLKKIEESDKKLEEVNEAAAKK([Suc-Succinyl(4-O-cholesteryl)])-NH2 [Compound 14]	9.9 nM

Target: F protein of hMPV virus strain B1 (human metapneumovirus (hMPV) B1)
Assay: cell-based or functional assay

Binder	EC50 (nM), plaque reduction, hMPV B1 on Vero cells
Ac-FDASIEEVNRRIEESLRRIEESDRRLEEVNAEAAAKK([Suc-Succinyl(4-O-cholesteryl)])-NH2 [Compound 42]	10.1 nM
Ac-YDELVFDASQVNEKINQSLEKIRKSDELLHNVEAAAKK([Suc-Succinyl(4-O-cholesteryl)])-NH2 [Compound 30]	51.3 nM
Ac-SDELVNKKIEFDKKINQSLKKIEESDKKKLEAAAKK-NH2 [Compound 51]	3.82 nM
Ac-WDEFDKKIEEVNKKIEESLKKIEESDKKLEEVNAEAAAKK([Suc-Succinyl(4-O-cholesteryl)])-NH2 [Compound 40]	7.47 nM
Ac-WDEFDASISQVNEKINQSLEEIRKSDELLHNVNALEAAAKK([Suc-Succinyl(4-O-cholesteryl)])-NH2 [Compound 38]	16.6 nM
Ac-LVKKIDEFDASISQVNEKINQSLEEIRKSDELLHNVGSGSGK([Suc-Succinyl(4-O-cholesteryl)])-NH2 [Compound 29]	11.1 nM
Ac-FDEEISQVNEKINQSLAFIRKSDELLHNVNAGKSTTEAAAKK([Suc-Succinyl(4-O-cholesteryl)])-NH2 [Compound 26]	2.85 nM
Ac-DEFDKKKIEEVNKKIEESLKKIEESDKKLEEVEAAAKK([Suc-Succinyl(4-O-cholesteryl)])-NH2 [Compound 22]	18 nM
Ac-WDEFDASISQVNEKINQSLEEIRKSDELLHNVNAGLGSGSGK([Suc-Succinyl(4-O-cholesteryl)])-NH2 [Compound 27]	10.5 nM
Ac-DEFDKKIEEVNKKIEESLKKIEESDKKLEEVNEAAAKK([Suc-Succinyl(4-O-cholesteryl)])-NH2 [Compound 14]	5.36 nM

Target: F protein of hMPV virus strain A2 (human metapneumovirus (hMPV) A2)
Assay: cell-based or functional assay

Binder	EC50 (nM), plaque reduction, hMPV A2 on Vero cells
Ac-FDASIEEVNRRIEESLRRIEESDRRLEEVNAEAAAKK([Suc-Succinyl(4-O-cholesteryl)])-NH2 [Compound 42]	26.1 nM
Ac-YDELVFDASQVNEKINQSLEKIRKSDELLHNVEAAAKK([Suc-Succinyl(4-O-cholesteryl)])-NH2 [Compound 30]	94.8 nM
Ac-SDELVNKKIEFDKKINQSLKKIEESDKKKLEAAAKK-NH2 [Compound 51]	18.8 nM
Ac-WDEFDKKIEEVNKKIEESLKKIEESDKKLEEVNAEAAAKK([Suc-Succinyl(4-O-cholesteryl)])-NH2 [Compound 40]	13.8 nM
Ac-WDEFDASISQVNEKINQSLEEIRKSDELLHNVNALEAAAKK([Suc-Succinyl(4-O-cholesteryl)])-NH2 [Compound 38]	128 nM
Ac-LVKKIDEFDASISQVNEKINQSLEEIRKSDELLHNVGSGSGK([Suc-Succinyl(4-O-cholesteryl)])-NH2 [Compound 29]	41.6 nM
Ac-FDEEISQVNEKINQSLAFIRKSDELLHNVNAGKSTTEAAAKK([Suc-Succinyl(4-O-cholesteryl)])-NH2 [Compound 26]	103 nM
Ac-DEFDKKKIEEVNKKIEESLKKIEESDKKLEEVEAAAKK([Suc-Succinyl(4-O-cholesteryl)])-NH2 [Compound 22]	88.4 nM
Ac-WDEFDASISQVNEKINQSLEEIRKSDELLHNVNAGLGSGSGK([Suc-Succinyl(4-O-cholesteryl)])-NH2 [Compound 27]	78.3 nM
Ac-DEFDKKIEEVNKKIEESLKKIEESDKKLEEVNEAAAKK([Suc-Succinyl(4-O-cholesteryl)])-NH2 [Compound 14]	18.9 nM

Target: F protein of hPIV Type 3 (hPIV3 C243) (human Parainfluenza Virus type 3 (hPIV3 …))
Assay: cell-based or functional assay

Binder	EC50 (nM), plaque reduction, hPIV3 C243 on LLC-MK2 cells
Ac-FDASIEEVNRRIEESLRRIEESDRRLEEVNAEAAAKK([Suc-Succinyl(4-O-cholesteryl)])-NH2 [Compound 42]	18.9 nM
Ac-YDELVFDASQVNEKINQSLEKIRKSDELLHNVEAAAKK([Suc-Succinyl(4-O-cholesteryl)])-NH2 [Compound 30]	48.2 nM
Ac-SDELVNKKIEFDKKINQSLKKIEESDKKKLEAAAKK-NH2 [Compound 51]	18.8 nM
Ac-WDEFDKKIEEVNKKIEESLKKIEESDKKLEEVNAEAAAKK([Suc-Succinyl(4-O-cholesteryl)])-NH2 [Compound 40]	22.2 nM
Ac-WDEFDASISQVNEKINQSLEEIRKSDELLHNVNALEAAAKK([Suc-Succinyl(4-O-cholesteryl)])-NH2 [Compound 38]	26.4 nM
Ac-LVKKIDEFDASISQVNEKINQSLEEIRKSDELLHNVGSGSGK([Suc-Succinyl(4-O-cholesteryl)])-NH2 [Compound 29]	26.3 nM
Ac-FDEEISQVNEKINQSLAFIRKSDELLHNVNAGKSTTEAAAKK([Suc-Succinyl(4-O-cholesteryl)])-NH2 [Compound 26]	1.35 nM
Ac-DEFDKKKIEEVNKKIEESLKKIEESDKKLEEVEAAAKK([Suc-Succinyl(4-O-cholesteryl)])-NH2 [Compound 22]	65.4 nM
Ac-WDEFDASISQVNEKINQSLEEIRKSDELLHNVNAGLGSGSGK([Suc-Succinyl(4-O-cholesteryl)])-NH2 [Compound 27]	27.2 nM
Ac-DEFDKKIEEVNKKIEESLKKIEESDKKLEEVNEAAAKK([Suc-Succinyl(4-O-cholesteryl)])-NH2 [Compound 14]	31.4 nM
